# Measured values published in doi:10.1101/2024.10.03.616038 (bioRxiv, 2024).
# B1: REGN10987 Fab (Fab, V domains shown)
# VH: QVQLVESGGGVVQPGRSLRLSCAASGFTFSNYAMYWVRQAPGKGLEWVAVISYDGSNKYYADSVKGRFTISRDNSKNTLYLQMNSLRTEDTAVYYCASGSDYGDYLLVYWGQGTLVTVSS
# VL: QSALTQPASVSGSPGQSITISCTGTSSDVGGYNYVSWYQQHPGKAPKLMIYDVSKRPSGVSNRFSGSKSGNTASLTISGLQSEDEADYYCNSLTSISTWVFGGGTKLTVL
# Target: 6P stabilised SARS-CoV-2 spike protein (SARS-CoV-2, original (Wuhan) strain, UniProt P0DTC2, stabilised)
# Test: cryo-EM structure
# Conditions: both partners purified
binder,measurement,value
B1,binding result,binds
